The data set in a line: label from the status in PepcDB records.

On to “KTNFKIVLKEDSELLQEVVVTGYGGKVSRSKLTNSISTVNPQMLDKGIYTNPSQALSGSVPGLKVSLTSGNPTSSPKIILRGGTNFDGSGGPLVVVDGQLRDNFDDINPQDIASMDVLKDAGATAIYGARASNGVILITTKSGKAGH”, for which the protein production entry is “failed”.
As to “KVDKKTYKNLIVELQQRMREIQFALYERKIPLVLVFEGMDAAGKGGNIKRIREKLDPTGYEVNGISAPTDVELKHHYLWRFAKKMPKSGHIEIFDRSWYGRVLVERVEGFASQNEWQRASDEINQFEKMWTDEGTIILKFFLCLDKDEQLKRFKDRENNPDKQWKITEEDWRNREKWDEYLEASHDMIESTNTSYAPWYIVPADHKKTSRIEVLKTIIRKCEEVLWGVKTY”, the protein production entry is “failed”.
The value for “LAAWHLSSADYIADTLRLQGMTARGQVLDFGGGIGTHALSAAALPQVDHVWFVDLNPHNQAFVEQRAAALGLSDKLSVHRDLESTGEVRFDTVVCLDVLEHLPDPSAQLQAFHQRMASDATALLNWYFFKGHDGEYPFHFDDPQ” was “failed”.
With “LADVEARARIAIDAAGMGTWDLRPQEGLLLWDDRCKTLFGVPTSTEMSLEVFYAGIYPDDLPLVREAVEHAMRPESDGHYRVEFRIAQPNGLEPRWLLSSGQSQFVDDQCVRFSGVLQDIHAQRQATQALRQLNEMLGER” the entry was “not failed”; with “LDTLRRYHRQTLQDLPMGVCSLAKDQEVLMWNRAIEELTGVGAQKVVGSRLSALPEPWKGLLERFIDAPDEHLHKQRLVYDGHTRWLNLHKAAIEEPLAPGNSGLVLLVEDLTETQLLEDKLVHSERLASIGRLAAGVAHEIGNPITGI”, “not failed”.
For “LEEALGILDTQRVEIAKRRHLNAVLRHIPAGVAAVDNQGVVQSLNPALAQLLDLPVSAALGRPLQQLCPELDLQQALQEGTGEENRVMRLGSHAVVSNLLPILENGERTGLVLTCQDITVVQRADQRIR”, the protein production result is recorded as “failed”.
In the case of “LEMKGKRMSVTAVMRELEKEENLYRRSGGGITLSGGEPLAQPEFARELLKACKAKGWHTAIETSGFTTKAVIDEVFPYVDLALTDIKAIDPEIHERNTGVNNRVILENLLRISFLTKVVVRIPVIPGVNDNSQEIHNIAEFARLMQNVDTIHLLPYHSFGENKYNLLGRQYPMGDTKSIEESQMAELKAMVESLGFNCHIGG”, the protein production result was “failed”.
For “LETERNRYKWLFENAVHGIFQASLQAGMRAANPALARMLGYQDPQEVLFSLADLAGNLFVGGAGELAAIGEQLQNQRSLLGYETQLRRKDGSSIDVLMNLLLKPDQDGLVEGFVADITERKLAQQHLEQLNDQLEQR”, the protein production entry is listed as “failed”.
With “LETSSYLNVLVNSQWKSRWCSVRDNHLHFYQDRNRSKVAQQPLSLVGCEVVPDPSPDHLYSFRILHKGEELAKLEAKSSEEMGHWLGLLLSESG”, the protein production entry is given as “not failed”.
With “LGRITQHIAIKQDITEQVHRFNQLKISEERYRNLMNAVADGIFIHNLQGAFLEVNEAACLSLNYSREELINSYVWDIEVGFSQESLNQLWENVQKGPINTEGMHRRKDGTTFPVDVRLAVFNATGEKLVLAIVRDI” the entry was “failed”; with “LHARLLQQESIINALPFAVFIRTAAGELAVYNSHFAEAHQDKLNDLLNHNNEPANWPMTSPLDREIDKYCRQVLTHRKPQMVDLSLEINGELRDIFLWIIPLDNAERSLFGGWLDISQRKTVERQLEAARVEAESANRTKSTFLATISHELRTPMYAIMGLL”, “failed”.
In the case of “LHRIVDKMHDTSTGIRPSPNMEQGSTYKKTFLGSSLVDWLISSNFAASRLEAVTLASMLMEENFLRPVGVRSMGAIRSGDLAEQFLDDSTALYTFAESYKKKVSSKE”, the protein production entry is “not failed”.
On to “LICLLSSLLSVQAAPGPHPHWSVGFHEMSFLDPLDRQPMRAIAFYPSTGIEHGSQLEGYQIAASRDAKIAIGRFPMLMLSHGNTGTPLALHDLATSLARKGFVVVAVIHPGDNSKDHSRLGTLSNLYGRPIQISEAITATLGDPMLSPFVNADQVGVIGYSAGGETALILSGATPDLDRLRRYCQERPNDRDACNTQGELIVDRDDLQPVADPRVHALMLLAPLSLKFGRQTLAGVHVPVLLYSGDGDQLVALDKNAAALARKLPVAPDFKLLAGAGHFVFMAPCSAQQMAAMPALCTDADGVDREDIHRNLILEAGNFFA”, for which the protein production result was “failed”.
In the case of “LIHKYKNFVRAKSRSYFLVGADREDIVQEGMIGLFKAIRDYKEDKLSSFKAFAELCITRQIITAIKTATRQKHIPLNSYVSLDKPIYDEESDRTLLDVISEAKVTDPEEMIISQEEYTDIESKISELLSDLERKVLSLYLDGRSYQEISEQLNRHVKSIDNALQRVKRKLERYMEMRESTTLNS”, the protein production entry is “not failed”.
